Measured values from article PMC1283526.

Molecular target: T1, GST-ELAV (UniProt P16914 76-483)
T1 sequence: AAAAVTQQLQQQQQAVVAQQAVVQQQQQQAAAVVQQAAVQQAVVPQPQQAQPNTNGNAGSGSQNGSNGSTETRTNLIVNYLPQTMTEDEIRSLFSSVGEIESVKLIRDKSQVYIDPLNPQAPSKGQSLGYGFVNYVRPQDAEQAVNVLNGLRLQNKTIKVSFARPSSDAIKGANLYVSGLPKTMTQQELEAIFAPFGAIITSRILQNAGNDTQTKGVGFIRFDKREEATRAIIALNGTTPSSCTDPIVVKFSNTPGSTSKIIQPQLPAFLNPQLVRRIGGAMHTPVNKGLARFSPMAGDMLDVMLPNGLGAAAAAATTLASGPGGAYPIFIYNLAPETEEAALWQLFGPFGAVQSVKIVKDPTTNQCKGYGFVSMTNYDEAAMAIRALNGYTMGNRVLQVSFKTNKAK
Experiment: competition

Binder: AUUUUUAUUUGUUAUUUUUU (ssRNA) [SSE 20mer]
- binding result: binds
